Test results published in US20230193513A1.

Target: glucagon-like peptide-1 receptor (GLP1R) (Homo sapiens (Human)) (UniProt P43220)
Assay: cell-based or functional assay

Sequence of glucagon-like peptide-1 receptor (GLP1R) (Homo sapiens (Human)) (P43220 24-463): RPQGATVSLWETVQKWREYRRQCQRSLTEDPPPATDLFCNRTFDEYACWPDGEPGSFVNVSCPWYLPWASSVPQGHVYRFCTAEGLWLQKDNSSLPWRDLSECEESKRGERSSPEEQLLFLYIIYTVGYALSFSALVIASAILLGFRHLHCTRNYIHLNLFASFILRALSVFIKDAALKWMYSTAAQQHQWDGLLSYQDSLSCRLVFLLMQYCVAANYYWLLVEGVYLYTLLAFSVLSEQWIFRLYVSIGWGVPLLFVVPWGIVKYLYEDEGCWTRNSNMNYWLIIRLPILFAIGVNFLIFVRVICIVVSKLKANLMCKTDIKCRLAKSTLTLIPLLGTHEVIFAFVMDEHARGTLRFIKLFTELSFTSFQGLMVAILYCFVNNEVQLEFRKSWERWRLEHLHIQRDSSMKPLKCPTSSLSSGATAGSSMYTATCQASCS

Row | EC50 (nM) of the IgG as agonist, functional assay on GLP-1R overexpressing cells [nM] | EC50 (nM) of Exendin-4 induced cAMP activity with the antibody [nM] | EC50 (nM) of GLP1 (7-36)-induced signaling with GLP1R IgG (+100 nM) [nM] | fold difference of the EC50 against no antibody [fold] | fold-diff of the Exendin-4 EC50 against Exendin-4 alone [fold] | Binder
1 | 0.821 | – | – | – | – | GLP1R-59-243 (antibody, part only; not given: light chain, part only) heavy: QVQLVQSGAEVKKPGSSVKVSCKASGGTFSTYGINWVRQAPGQGLEWMGGIIPIFGTANYAQKFQGRVTITADESTSTAYMELSSLRSEDTAVYYCARANQHFFGKGDNLAARDFINWLIQTKITDGSNPGYHYYGMDVWGQGTLVTVSSASASTKGPSVFPLAPCSRSTSESTAALGCLVKDYFPEPVTVSWNSGALTSGVHTFPAVLQSSGLYSLSSVVTVPSSNFGTQTYTCNVDHKPSNTKVDKTVERKCCVECPPCPAPPVAGPSVFLFPPKPKDTLMISRTPEVTCVVVDVSHEDPEVQFNWYVDGVEVHNAKTKPREEQFNSTFRVVSVLTVVHQDWLNGKEYKCKVSNKGLPAPIEKTISKTKGQPREPQVYTLPPSREEMTKNQVSLTCLVKGFYPSDIAVEWESNGQPENNYKTTPPMLDSDGSFFLYSKLTVDKSRWQQGNVFSCSVMHEALHNHYTQKSLSLSPG
2 | 0.722 | – | – | – | – | GLP1R-59-241 (antibody, part only; not given: light chain, part only) heavy: QVQLVQSGAEVKKPGSSVKVSCKASGGTFSDYAISWVRQAPGQGLEWMGGIIPIFGTTNYAQKFQGRVTITADESTSTAYMELSSLRSEDTAVYYCAKHMSMQGSVAGGTFTSDVSSYLEGQAAKEFIAWLVKGGPSFIRADLVGDAFDVWGQGTLVTVSSASASTKGPSVFPLAPCSRSTSESTAALGCLVKDYFPEPVTVSWNSGALTSGVHTFPAVLQSSGLYSLSSVVTVPSSNFGTQTYTCNVDHKPSNTKVDKTVERKCCVECPPCPAPPVAGPSVFLFPPKPKDTLMISRTPEVTCVVVDVSHEDPEVQFNWYVDGVEVHNAKTKPREEQFNSTFRVVSVLTVVHQDWLNGKEYKCKVSNKGLPAPIEKTISKTKGQPREPQVYTLPPSREEMTKNQVSLTCLVKGFYPSDIAVEWESNGQPENNYKTTPPMLDSDGSFFLYSKLTVDKSRWQQGNVFSCSVMHEALHNHYTQKSLSLSPG
3 | – | 0.63 | 1.31 | 2.2 | 5.4 | GLP1R-3 (antibody, from a related filing, V domains shown, part only) VH: QVQLVESGGGVVQPGRSLRLSCAASGFTFSSYGMHWVRQAPGKGLEWVSFISYDESNKYYADSVKGRFTISRDNSKNTLYLQMNSLRAEDTAVYYCAKHMSMQEGAVTGEGQAAKEFIAWLVKGRVRADLVGDAFDVWGQGTLVTVSS VL: QSVLTQPPSVSAAPGQKVTISCSGSSSNIADNYVSWYQQLPGTAPKLLIYDNNKRPSGIPDRFSGSKSGTSATLGITGLQTGDEADYYCGTWDNYLGAGVFGGGTKLTVLG
